Reference: patent US20240115720A1 (published 2024)
Like-named read-outs stand apart in the source and are kept apart here.

T1: Recombinant Human DLL3 Protein (amino acids Ala27-Ala479, cat #9749-DL, R&D Systems) (UniProt Q9NYJ7 27-479)
T1 chain: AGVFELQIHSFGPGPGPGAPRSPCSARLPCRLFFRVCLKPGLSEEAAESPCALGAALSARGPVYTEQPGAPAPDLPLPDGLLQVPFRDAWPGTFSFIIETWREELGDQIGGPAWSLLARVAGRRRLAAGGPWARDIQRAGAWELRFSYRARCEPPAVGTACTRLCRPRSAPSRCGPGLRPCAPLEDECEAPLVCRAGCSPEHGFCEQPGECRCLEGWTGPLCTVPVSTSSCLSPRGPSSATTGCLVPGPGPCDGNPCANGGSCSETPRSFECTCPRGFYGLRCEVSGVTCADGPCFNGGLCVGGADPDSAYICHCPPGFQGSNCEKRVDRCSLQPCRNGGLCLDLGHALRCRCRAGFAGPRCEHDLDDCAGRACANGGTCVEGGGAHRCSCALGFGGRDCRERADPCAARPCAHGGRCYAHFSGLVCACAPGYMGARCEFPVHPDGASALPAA

B1: 7-I1-B (antibody, V domains shown)
VH: EVQLVESGGGLVKPGGSLRLSCAASGFTFSNTWMSWVRQAPGKGLEWVGRIKSKSDGGTTDYAAPVKGRFTISRDDSKNTLYLQMNSLKTEDTAVYYCTQYYWNSFDYWGQGTLVTVSS
VL: not shown
B2: 6-G23-F (antibody, V domains shown)
VH: QVQLVQSGAEVKKPGASVKVSCKASGYTFTSYYIHWVRQAPGQGLEWMGIIDPSDGSTNYAQKFQGRVTMTRDTSTSTVYMELSSLRSEDTAVYYCARDREYNYYGLDVWGQGTTVTVSS
VL: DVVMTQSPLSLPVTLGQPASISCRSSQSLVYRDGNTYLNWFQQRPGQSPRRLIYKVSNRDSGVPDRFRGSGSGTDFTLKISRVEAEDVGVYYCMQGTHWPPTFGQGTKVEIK
B3: 10-O18-A (antibody, V domains shown)
VH: QVQLQESGPGLVKPSETLSLTCTVSGGSINSYYWSWIRQPPGKGLEWIGYIFYSGITNYNPSLKSRVTISLDTSKNQFSLKLSSVTAADTAVYYCARIGVAGFYFDYWGQGTLVTVSS
VL: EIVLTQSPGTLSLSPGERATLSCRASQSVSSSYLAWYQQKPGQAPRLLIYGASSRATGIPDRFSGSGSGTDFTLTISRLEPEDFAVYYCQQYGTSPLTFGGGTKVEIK
B4: 2-C8-A (antibody, V domains shown)
VH: EVQLVESGGGLVQPGGSQRLSCAASGFTFSSYWMNWVRQAPGKGLEWVANIKEDGSEKYYVDSVKGRFTISRDNAKNSLYLQMNSLRAEDTAVYYCARDPGWAPFDYWGQGTLVTVSS
VL: DIQMSQSPSSLSASVGDRVTITCRASQGISNYLAWFQQKPGKAPKSLIYAASSLQSGVPSKFSGSGSGTDFTLAISSLQPEDFATYYCQQYNSFPYTFGQGTTLEIK

Key:
Assay in all cases: BLI (Octet HTX)
[1] = target: T1, Recombinant Human DLL3 Protein (amino …)
[2] = target: T1, Recombinant Human DLL3 Protein (amino …)
[3] = target: T1, Recombinant Human DLL3 Protein (amino …)

Row | Binder | Kd [1] | Kd [2] | Kd [3]
1 | B1 | 0.68 nM | 0.686 nM | –
2 | B2 | 0.16 nM | 0.16 nM | –
3 | B3 | 0.62 nM | – | 0.602 nM
4 | B4 | 0.668 nM | – | 0.668 nM
